Data on two substances can be found in article PMC9057628.

For experiment [1], the target named is recombinant full-length human TTRWT with N-terminal AviTag (human) (UniProt P02766). Nature of the experiment: SEC; time series: TTR in 1M urea pH 7.6 at room temperature on a rotating platform for 1 hour to 7 days; oligomers between 200 and 600 kDa; also with 100 uM H2O2 or 5 mM DTT.
In experiment [2] the target is recombinant full-length human TTRV122I with N-terminal AviTag (human) (UniProt P02766). The experiment is described as above.

Regarding “recombinant full-length human TTRWT with N-terminal AviTag (from UniProt P02766 21-147) (natural protein)”, in experiment [1], the stoichiometry N (protein subunits) worked out at 10.

As to “recombinant full-length human TTRV122I with N-terminal AviTag (from UniProt P02766 21-147) (natural protein)”, the stoichiometry N (protein subunits) in experiment [2] was found to be 15.
